What is called Kd is the equilibrium constant for the complex coming apart. The term stoichiometry N denotes the number of molecules, sites or subunits per partner or assembly.

First the molecules themselves.
B4: human SALM5 LRR–Ig-His6 (residues 18–378) (domain or fragment, UniProt Q96NI6 18-378, looked up)
chain: QICPKRCVCQILSPNLATLCAKKGLLFVPPNIDRRTVELRLADNFVTNIKRKDFANMTSLVDLTLSRNTISFITPHAFADLRNLRALHLNSNRLTKITNDMFSGLSNLHHLILNNNQLTLISSTAFDDVFALEELDLSYNNLETIPWDAVEKMVSLHTLSLDHNMIDNIPKGTFSHLHKMTRLDVTSNKLQKLPPDPLFQRAQVLATSGIISPSTFALSFGGNPLHCNCELLWLRRLSREDDLETCASPPLLTGRYFWSIPEEEFLCEPPLITRHTHEMRVLEGQRATLRCKARGDPEPAIHWISPEGKLISNATRSLVYDNGTLDILITTVKDTGAFTCIASNPAGEATQIVDLHIIKLP
notes: human SALM5 (synaptic adhesion-like molecule 5, Lrfn family), LRR–Ig, residues 18–378; Homodimer by SEC-MALS; The synaptogenic assay used another construct (entire ECD fused to Fc); also called SALM5 WT; apo-SALM5; source: Expi293F, transiently expressed, secreted, purified (Ni-NTA, Superdex200 SEC); not shown: His6, C-terminal, kept

Data set [1] deals with human SALM5 LRR–Ig-His6 (residues 18–378) (human) (UniProt Q96NI6). The data set can be described thus: SPR; Biacore T200, 25 °C, 10 mM Hepes-Na (pH 7.5), 200 mM NaCl, 0.05% Tween20; SALM5 proteins immobilised on a CM5 chip by amino coupling; PTPδ proteins injected as analytes (0.1–260 μM). Background: In SPR one partner is held on a chip, and binding of the other changes the refractive index at the surface.

The target of data set [2] is human SALM5 LRR–Ig-His6 I321A (human) (UniProt Q96NI6). The description is as above.
The target of data set [3] is human SALM5 LRR–Ig-His6 I358A (human) (UniProt Q96NI6). Described as above.
The target in data set [4] is human SALM5 LRR–Ig-His6 L249A (human) (UniProt Q96NI6). The description is as above.
Data set [5] deals with human SALM5 LRR–Ig-His6 L288A (human) (UniProt Q96NI6). Described as above.
For data set [6], the target named is human SALM5 LRR–Ig-His6 Q134N (human) (UniProt Q96NI6). The data set is described as above.
Data set [7] has as its target human SALM5 LRR–Ig-His6 R253A (human) (UniProt Q96NI6). The description is as above.
The next data set concerns the target IL1RAPL1 (Mus musculus) (UniProt P59823). Conditions: cited from earlier work.
Data set [8] concerns the target B4. The experiment in a line: SPR; Biacore T200, 25 °C, 10 mM Hepes-Na (pH 7.5), 200 mM NaCl, 0.05% Tween20; SALM5 proteins immobilised on a CM5 chip by amino coupling; PTPδ proteins injected as analytes (0.1–260 μM). Conditions: both partners purified.
Data set [9] deals with the molecule itself. The data set can be described thus: SEC-MALS; SALM LRR–Ig proteins at 0.5 g/L on ENrich SEC 650 in 20 mM Tris-HCl (pH 7.4), 250 mM NaCl; dimer of monomers.
Data set [10] addresses mouse PTPδ Ig1–Fn1 (A9B–) (mouse, UniProt Q64487 28-418, B– (meB insert 234ELRE237 absent)). The data set can be described thus: SPR; Biacore T200, 25 °C, 10 mM Hepes-Na (pH 7.5), 200 mM NaCl, 0.05% Tween20; SALM5 proteins immobilised on a CM5 chip by amino coupling; PTPδ proteins injected as analytes (0.1–260 μM). Particulars: both partners purified.

Chain of IL1RAPL1 (Mus musculus) (P59823 25-357): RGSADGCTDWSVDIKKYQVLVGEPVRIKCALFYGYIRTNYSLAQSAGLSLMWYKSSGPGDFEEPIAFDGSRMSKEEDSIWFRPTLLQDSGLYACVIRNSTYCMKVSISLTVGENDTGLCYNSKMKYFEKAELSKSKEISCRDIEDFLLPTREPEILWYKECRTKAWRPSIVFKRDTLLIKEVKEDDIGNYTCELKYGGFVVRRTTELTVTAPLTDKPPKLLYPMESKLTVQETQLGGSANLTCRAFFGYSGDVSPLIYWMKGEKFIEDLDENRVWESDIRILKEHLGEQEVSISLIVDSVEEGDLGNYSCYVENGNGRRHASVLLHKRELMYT

With “mouse PTPδ Ig1–Fn1 (A9B+)-His6 V143A (domain or fragment)”, the Kd in [1] came to 150 µM.
The same measure, in the same setting: as for “mouse PTPδ Ig1–Fn1 (A9B+)-His6 Y231A (domain or fragment)”, the figure is 70.9 µM.
The same measure, in the same setting: for “mouse PTPδ Ig1–Fn1 (A9B+)-His6 L153A (domain or fragment)” the value was 25 µM; for “mouse PTPδ Ig1–Fn1 (A9B+)-His6 M312A (domain or fragment)”, 37.3 µM; for “mouse PTPδ Ig1–Fn1 (A–B+) (from UniProt Q64487 28-418) (domain or fragment)”, 13.5 µM.
On to “mouse PTPδ Ig1–Fn1 (A9B+)-His6 (domain or fragment)”, for which the Kd in data set [1] was 14.4 µM; in data set [2], 21.9 µM; in [3], 31.4 µM; in data set [4], 169 µM; in data set [5] it was 129 µM; in data set [6], 9 µM. The same molecule came in with a Kd in data set [7] of 95.2 µM.
In turn, “mouse PTPδ Ig1–Fn1 (A9B+)-His6 M137A (domain or fragment)” came in with a Kd in data set [1] of 39.9 µM.
PTPδ (from UniProt Q64487): the Kd with IL1RAPL1 (Mus musculus) is 0.15 µM.
Turning to “mouse PTPδ Ig1–Fn1 (A9B+)-His6 Y273A (domain or fragment)”, in [1], the dissociation constant Kd amounted to 77.5 µM.

B1: mouse PTPδ Ig1–Fn1 (A9B+)-His6 Q209A (domain or fragment)
chain: ETPPRFTRTPVDQTGVSGGVASFICQATGDPRPKIVWNKKGKKVSNQRFEVIEFDDGSGSVLRIQPLRTPRDEAIYECVASNNVGEISVSTRLTVLREDQIPRGFPTIDMGPQLKVVERTRTATMLCAASGNPDPEITWFKDFLPVDTSNNNGRIKQLRSESIGGTPIRGALQIEQSEESDAGKYECVATNSAGTRYSAPANLYVRELREVRRVPPRFSIPPTNHEIMPGGSVNITCVAVGSPMPYVKWMLGAEDLTPEDDMPIGRNVLELNDVRQSANYTCVAMSTLGVIEAIAQITVKALPKPPGTPVVTESTATSITLTWDSGNPEPVSYYIIQHKPKNSEEPYKEIDGIATTRYSVAGLSPYSDYEFRVVAVNNIGRGPASEPVLTQ
B1: binding in [8] was characterised by a dissociation constant (Kd) of 21.9 ± 0.23 µM.

B2: mouse PTPδ Ig1–Fn1 (A9B+)-His6 R233A (domain or fragment)
chain: ETPPRFTRTPVDQTGVSGGVASFICQATGDPRPKIVWNKKGKKVSNQRFEVIEFDDGSGSVLRIQPLRTPRDEAIYECVASNNVGEISVSTRLTVLREDQIPRGFPTIDMGPQLKVVERTRTATMLCAASGNPDPEITWFKDFLPVDTSNNNGRIKQLRSESIGGTPIRGALQIEQSEESDQGKYECVATNSAGTRYSAPANLYVAELREVRRVPPRFSIPPTNHEIMPGGSVNITCVAVGSPMPYVKWMLGAEDLTPEDDMPIGRNVLELNDVRQSANYTCVAMSTLGVIEAIAQITVKALPKPPGTPVVTESTATSITLTWDSGNPEPVSYYIIQHKPKNSEEPYKEIDGIATTRYSVAGLSPYSDYEFRVVAVNNIGRGPASEPVLTQ
In the case of B2, binding in data set [8] was characterised by a dissociation constant (Kd) of 24.8 ± 1.2 µM.

B3: mouse SALM2 LRR–Ig-His6 (residues 32–390) (domain or fragment, UniProt Q2WF71 32-390, looked up)
chain: QPCPGRCICQNVAPTLTMLCAKTGLLFVPPAIDRRVVELRLTDNFIAAVRRRDFANMTSLVHLTLSRNTIGQVAAGAFADLRALRALHLDSNRLAEVRGDQLRGLGNLRHLILGNNQIRKVESAAFDAFLSTVEDLDLSYNNLEALPWEAVGQMVNLNTLTLDHNLIDHIAEGTFVQLHKLVRLDMTSNRLHKLPPDGLFLRSQGGGPKPPTPLTVSFGGNPLHCNCELLWLRRLTREDDLETCATPEHLTDRYFWSIPEEEFLCEPPLITRQAGGRALVVEGQAVSLRCRAVGDPEPVVHWVAPDGRLLGNSSRTRVRGDGTLDVTITTLRDSGTFTCIASNAAGEATAPVEVCVVPL
notes: mouse SALM2 (synaptic adhesion-like molecule 2, Lrfn family), LRR–Ig, residues 32–390; Homodimer by SEC-MALS; source: Expi293F, transiently expressed, secreted, purified (Ni-NTA, Superdex200 SEC); not shown: His6, C-terminal, kept
Regarding B3, the “stoichiometry N” value in data set [9] turned out to be 2.
On to B4, for which, in data set [9], the “stoichiometry N” value was found to be 2. In addition, the Kd in [10] stood at 106 ± 17 µM.
